Measured values reported in PMC7746858.

Molecular target: human complement C1q (human)
Assay: ELISA

In the case of “construct HLZ (6D8 heavy and light chains, C-terminal ZE3 fusion, no epitope tag) (antibody)”, the fold lower C1q binding than HLZd is reported as 10 fold.
